The values that follow come from doi:10.1101/2025.09.09.675108 (bioRxiv, 2025).

The Kd is the constant that tells how readily two partners part at equilibrium.

What all share (experiment): fluorescence polarisation
(In fluorescence polarisation assays a small probe gives low polarisation when free and higher when bound to something large.)

Assay [1] has as its target DDIAS pS993 peptide (FITC-ETRSAWpSPELFS-NH2).
Assay [2] addresses DDIAS pS676 peptide (FITC-SYDAp…-NH2).
For assay [3], the target named is recombinant TOPBP1 BRCT7/8 domain (amino acids 1264-1493), WT (UniProt Q92547 1264-1493).
recombinant TOPBP1 BRCT7/8 domain (amino acids 1264-1493), WT, sequence (Q92547 1264-1493): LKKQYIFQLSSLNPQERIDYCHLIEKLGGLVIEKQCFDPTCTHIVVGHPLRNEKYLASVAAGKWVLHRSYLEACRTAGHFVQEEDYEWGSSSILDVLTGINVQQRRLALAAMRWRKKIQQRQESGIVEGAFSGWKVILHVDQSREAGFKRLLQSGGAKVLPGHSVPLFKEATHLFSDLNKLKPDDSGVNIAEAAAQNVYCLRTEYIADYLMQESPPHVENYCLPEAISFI

Non-standard residues stand in square brackets, D forms with d. *: point of attachment. FITC = O=C1OC2(c3ccc(O)cc3Oc3cc(O)ccc32)c2ccc(NC(=S)*)cc21; pT = C[C@@H](OP(=O)(O)O)[C@H](N)C(=O)O

With “recombinant TOPBP1 BRCT7/8 domain (amino acids 1264-1493), WT (from UniProt Q92547 1264-1493) (domain or fragment)”, the dissociation constant (Kd) in assay [1] is 1200 nM; in assay [2], 300 nM.

In the case of {FITC}-ESIYF[pT]PELYDPEDT-NH2 [pBRIP1 peptide (FITC-ESIYFpTPELYDPEDT-NH2)], the Kd in assay [3] amounted to 200 nM.
